Laboratory results reported in the Human Domainome abundance scans (Beltran et al. 2025).
± gives the uncertainty stated by the source.

B1: Endonuclease CUE2, residues 9 to 47; numbered along this chain, P36075 (parent)
chain: HESKLSILMDMFPAISKSKLQVHLLENNNDLDLTIGLLL

Variants of: B1
Assay: abundance fitness (aPCA) (normalised: wild type 0, dead -1); higher = more abundant; growth selection in yeast, the domain comes from the species named
Details: Saccharomyces cerevisiae (strain ATCC 204508 / S288c)

Abundance fitness of substitutions, site by site:
F12: V -0.9 ± 0.1 | P -0.611 ± 0.39 | T -0.446 ± 0.12 | K -0.966 ± 0.2 | R -0.865 ± 0.11 | M -0.548 ± 0.19
M9: L 0.107 ± 0.042 | W -0.28 ± 0.059 | V 0.014 ± 0.052 | K -0.155 ± 0.083 | Q -0.013 ± 0.07 | D -0.255 ± 0.068 | Y -0.057 ± 0.055 | G -0.011 ± 0.033 | T -0.054 ± 0.073
L33: V 0.03 ± 0.035 | R 0.082 ± 0.032 | M -0.001 ± 0.046 | K 0.036 ± 0.061 | N 0.075 ± 0.057 | D 0.031 ± 0.047 | W -0.4 ± 0.051 | P -0.008 ± 0.05 | F -0.258 ± 0.053 | I -0.089 ± 0.062 | S -0.034 ± 0.045 | G 0.031 ± 0.032 | T -0.004 ± 0.051
L39: H -0.062 ± 0.2 | F -0.084 ± 0.11 | I -0.182 ± 0.13 | V -0.046 ± 0.047 | G 0.122 ± 0.042 | W -0.066 ± 0.047 | S 0.1 ± 0.037 | N 0.081 ± 0.078
N29: M -0.008 ± 0.063 | D -0.082 ± 0.11 | A -0.086 ± 0.041 | V -0.262 ± 0.051 | Q 0.037 ± 0.082 | R -0.222 ± 0.035 | F -0.059 ± 0.3 | H -0.117 ± 0.14
P13: A -0.602 ± 0.11 | W -1.04 ± 0.14 | T -0.861 ± 0.18 | Q -0.752 ± 0.13 | K -0.781 ± 0.16 | H -1.06 ± 0.3 | E -0.349 ± 0.083 | M -0.72 ± 0.16 | S -0.806 ± 0.12 | D -0.898 ± 0.18
A14: R -0.018 ± 0.036 | D -0.118 ± 0.13 | W -0.047 ± 0.034 | Q 0.012 ± 0.045 | F -0.033 ± 0.089 | C -0.093 ± 0.068 | S 0.068 ± 0.046 | G 0.012 ± 0.031 | L -0.053 ± 0.036
K4: L -0.13 ± 0.047 | P -0.16 ± 0.059 | C -0.061 ± 0.061 | A -0.117 ± 0.04 | I -0.127 ± 0.17 | M 0.188 ± 0.11 | F -0.259 ± 0.086 | D 0.115 ± 0.059 | G -0.241 ± 0.033 | W -0.572 ± 0.057
L20: E -0.748 ± 0.084 | R -0.853 ± 0.079 | I 0.161 ± 0.19 | H -0.559 ± 0.081 | Q -0.705 ± 0.19 | K -0.838 ± 0.2
L24: I -1 ± 0.24 | A -0.898 ± 0.091 | W -1.05 ± 0.12 | E -0.88 ± 0.12 | T -0.595 ± 0.2
N28: G 0.025 ± 0.031 | A -0.024 ± 0.039 | Q -0.053 ± 0.061 | M -0.045 ± 0.062 | W -0.485 ± 0.092 | T -0.353 ± 0.078 | R -0.085 ± 0.034 | E 0.018 ± 0.039 | D 0.022 ± 0.12 | K 0.104 ± 0.066
S3: Q -0.057 ± 0.051 | H 0.014 ± 0.068 | T -0.344 ± 0.063 | A -0.156 ± 0.04 | M -0.042 ± 0.073 | W -0.428 ± 0.054
H1: A 0.264 ± 0.093 | E 0.361 ± 0.043 | C 0.351 ± 0.12 | L 0.377 ± 0.045 | V 0.28 ± 0.045 | S 0.174 ± 0.06
V22: W -0.147 ± 0.039 | I 0.039 ± 0.28 | A -0.001 ± 0.04 | L -0.08 ± 0.041 | M 0.019 ± 0.056 | T -0.006 ± 0.044 | E -0.05 ± 0.04
M11: S -0.421 ± 0.15 | D -0.758 ± 0.12 | A -0.16 ± 0.049 | W -0.413 ± 0.048
S6: T -0.011 ± 0.045 | A 0.041 ± 0.034 | P -0.342 ± 0.072 | Q 0 ± 0.12 | E -0.107 ± 0.053 | L -0.098 ± 0.042 | H -0.38 ± 0.089
I15: Q -0.081 ± 0.048 | W -0.023 ± 0.038 | R -0.343 ± 0.043 | H 0.022 ± 0.062 | T -0.115 ± 0.25 | K -0.142 ± 0.054 | D -0.293 ± 0.11 | F 0.163 ± 0.18 | S -0.214 ± 0.057 | V -0.115 ± 0.048 | M -0.078 ± 0.055
D30: Q -0.194 ± 0.075 | R -0.246 ± 0.045 | M 0.097 ± 0.22 | L -0.66 ± 0.18
E26: D -0.139 ± 0.13 | C -0.331 ± 0.1 | L -0.288 ± 0.049 | Q -0.151 ± 0.086 | M -0.176 ± 0.068 | R -0.045 ± 0.032 | T -0.113 ± 0.047 | V -0.257 ± 0.046 | A 0.047 ± 0.036
K19: P -0.818 ± 0.08 | L -0.143 ± 0.045 | W -0.248 ± 0.052 | R -0.01 ± 0.034 | F -0.123 ± 0.08 | V -0.038 ± 0.034 | T -0.015 ± 0.047 | Y -0.364 ± 0.071 | H -0.151 ± 0.077
S16: V -0.29 ± 0.048 | P 0.025 ± 0.051 | R -0.15 ± 0.032 | G -0.167 ± 0.032 | D -0.048 ± 0.068 | E -0.09 ± 0.042 | Q -0.057 ± 0.06 | K -0.114 ± 0.055 | M -0.395 ± 0.055 | A -0.026 ± 0.043 | L -0.37 ± 0.046 | F -0.045 ± 0.1 | T -0.179 ± 0.074
K17: G -0.255 ± 0.044 | T -0.263 ± 0.065 | L -0.316 ± 0.057 | Y -0.077 ± 0.15 | P -0.082 ± 0.039 | H -0.085 ± 0.086 | I -0.387 ± 0.11 | D -0.286 ± 0.1 | W -0.471 ± 0.082 | S -0.129 ± 0.048 | A -0.156 ± 0.036
L25: C -0.002 ± 0.074 | N -0.333 ± 0.28 | A 0.076 ± 0.037 | M 0.043 ± 0.044 | K -0.126 ± 0.058 | W -0.065 ± 0.04 | D -0.181 ± 0.19
L37: D -0.049 ± 0.075 | P -0.099 ± 0.046 | M -0.042 ± 0.042 | H -0.034 ± 0.086 | A 0.055 ± 0.033 | E 0.001 ± 0.041 | Y 0.007 ± 0.054 | T 0.098 ± 0.048 | G -0.014 ± 0.038 | N -0.003 ± 0.075 | Q -0.016 ± 0.055 | V -0.054 ± 0.038 | K 0.045 ± 0.083 | C 0.06 ± 0.06
L38: N -0.471 ± 0.25 | Q -0.664 ± 0.12 | W -1.02 ± 0.13 | A -0.375 ± 0.054 | S -0.768 ± 0.078 | G -0.557 ± 0.049 | P -0.497 ± 0.085 | M -0.054 ± 0.074 | E -0.568 ± 0.058
D32: R -0.091 ± 0.038 | N 0.07 ± 0.25 | G -0.082 ± 0.034 | W -0.499 ± 0.068 | Y -0.659 ± 0.33 | Q 0.032 ± 0.038
T34: S -0.235 ± 0.045 | I -0.447 ± 0.13 | Q -0.899 ± 0.12 | K -0.863 ± 0.37 | P -0.943 ± 0.14
L31: T -0.35 ± 0.046 | P -1.01 ± 0.21 | R -0.841 ± 0.072 | I -0.064 ± 0.17 | K -0.752 ± 0.18 | W -0.694 ± 0.085 | N -0.881 ± 0.37 | G -0.913 ± 0.084 | C -0.388 ± 0.053 | S -0.816 ± 0.093
L5: M -0.031 ± 0.065 | T -0.338 ± 0.072 | R -0.906 ± 0.067 | S -0.856 ± 0.22 | A -0.708 ± 0.068 | G -0.817 ± 0.055 | E -0.683 ± 0.076 | Q -0.775 ± 0.081 | H -1 ± 0.19 | C -0.306 ± 0.066 | W -0.779 ± 0.078 | P -0.738 ± 0.18
I35: H -0.371 ± 0.12 | P -0.8 ± 0.14 | V -0.067 ± 0.04 | L -0.165 ± 0.036 | R 0.07 ± 0.033 | K 0.07 ± 0.048 | C -0.114 ± 0.044 | F -0.75 ± 0.18
N27: L -0.325 ± 0.051 | P -0.997 ± 0.12 | S -0.164 ± 0.044 | R -0.244 ± 0.04 | T -0.273 ± 0.062 | Q -0.132 ± 0.072 | G -0.243 ± 0.042 | F -0.482 ± 0.25
D10: W -0.691 ± 0.092 | L -0.441 ± 0.051 | I -0.12 ± 0.067 | E 0.052 ± 0.038 | F -0.463 ± 0.18 | V -0.336 ± 0.044 | P -0.587 ± 0.12 | C -0.123 ± 0.11 | K -0.191 ± 0.048 | H -0.145 ± 0.11
H23: L -0.139 ± 0.047 | Q -0.151 ± 0.065 | A -0.075 ± 0.036 | M -0.165 ± 0.052 | V -0.146 ± 0.037 | R -0.124 ± 0.034 | N -0.026 ± 0.089 | D -0.544 ± 0.11 | E -0.163 ± 0.062
Q21: W -0.423 ± 0.046 | H -0.124 ± 0.12 | M -0.089 ± 0.066 | T -0.128 ± 0.07 | I 0.155 ± 0.1 | V -0.118 ± 0.039 | G -0.139 ± 0.041 | D -0.119 ± 0.064 | E -0.021 ± 0.054 | C -0.061 ± 0.048 | L -0.24 ± 0.062
S18: M -0.11 ± 0.057 | A -0.063 ± 0.036 | V 0.154 ± 0.036 | P -0.214 ± 0.075 | Q 0.082 ± 0.099 | D -0.164 ± 0.15
I7: F -0.282 ± 0.076 | S -0.114 ± 0.065 | E -0.158 ± 0.065 | D 0.22 ± 0.28 | A 0.071 ± 0.042 | K 0.078 ± 0.096 | P -0.633 ± 0.17 | M 0.058 ± 0.071 | T 0.059 ± 0.051 | W -0.406 ± 0.067
G36: Y -0.447 ± 0.097 | K 0.076 ± 0.045 | E 0.067 ± 0.046 | D 0.058 ± 0.064 | T 0.021 ± 0.041 | L -0.438 ± 0.074 | M -0.291 ± 0.18 | Q 0.004 ± 0.064 | V -0.383 ± 0.069 | P -0.056 ± 0.039
L8: R -0.883 ± 0.084 | F -0.701 ± 0.18 | M -0.631 ± 0.12 | D -1.16 ± 0.42 | S -0.915 ± 0.23 | E -0.931 ± 0.09 | W -0.947 ± 0.13
E2: Q 0.113 ± 0.042 | R 0.13 ± 0.045 | L 0.109 ± 0.04 | D -0.133 ± 0.2 | C 0.283 ± 0.11 | G -0.11 ± 0.039 | K 0.153 ± 0.042 | T 0.157 ± 0.054 | V -0.195 ± 0.039 | I 0.14 ± 0.051 | M 0.19 ± 0.061
